Source: US20260193317A1, “COMBINATION THERAPY WITH ACTRIIB RECEPTOR VARIANTS AND GLP-1 AGONISTS” (35PHARMA Inc., priority 2023, published 2026)
Like-named read-outs stand apart in the source and are kept apart here. Each block holds one molecule with its values, some of them ahead of it.

Assays:
[1] = Single-injection body weight gain in wild-type mice; format: in vivo; conditions: single 25 mg/kg subcutaneous injection, after 4 days, vs vehicle
Method: To investigate the target engagement of exemplary ActRIIB-ECD polypeptide constructs in vivo, mice (n=6/group) were injected with given agents (25 mg/kg, subcutaneous injection), and sacrificed after 4 days to assess body weight gain.

[2] = Single subcutaneous injection in CD-1 mice: body weight; format: in vivo; conditions: CD-1 male mice, single s.c. injection; P1229 50 mg/kg, semaglutide 2 mg/kg
DIO mice = assay: Body composition in high fat diet mice, alone and in combination with incretin mimetics; format: in vivo
Method: Experiments were performed in vivo to investigate the potential for additive or synergistic effects between exemplary ActRIIB-ECD polypeptide constructs and incretin mimetics.

activin A [3] = target: T1, activin A (Homo sapiens, UniProt P08476); assay: Small-scale activin A ELISA with CHO supernatants; conditions: 1 μg/mL protein, 30 ng/mL activin A, loss of signal = binding
T1 sequence (P08476 311-426): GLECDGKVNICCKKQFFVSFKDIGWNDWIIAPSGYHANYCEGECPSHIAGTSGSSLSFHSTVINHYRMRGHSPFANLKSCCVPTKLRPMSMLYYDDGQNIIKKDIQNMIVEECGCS
Method: Small-scale testing of ActRIIB-ECD fusion proteins. Additional investigation of a series of exemplary agents was performed using proteins expressed in CHO cells. Briefly, DNA encoding the ActRIIB-ECD-Fc fusion constructs was transfected in cells seeded in 12-well plates in a final volume of 1 ml. After 7 days, the supernatant was harvested, clarified, and the amount of expressed protein in each well was quantified using standard methods. The potency of each agent for inhibition of activin A, BMP-9 and BMP-10 was determined in three separate assays.
The next day, the plate was washed three times with buffer (Biolegend #421601). […] Expressed proteins in the supernatants described above were diluted to 2 μg/mL in assay diluent (0.5% BSA, 0.05% tween-20 in PBS), mixed 1:1 with recombinant human activin A (R&D #338-AC, 60 ng/mL, diluted in assay diluent). Complexes were immediately added to the 96-well plate in technical duplicates and incubated for 1 h at RT (concentration of expressed protein and activin A on the plate were 1 μg/mL and 30 ng/mL, respectively). […] In this assay, a loss of signal indicates binding of the exemplary agent to activin A, which prevents activin A binding to the anti-activin A antibody on the plate. Results are expressed as a % of the signal obtained with wild-type ActRIIB-Fc (P75).

[4] = Co-formulation study of ectodomain-based traps with incretin mimetics (monomer content by SEC / RP-HPLC, integrity, stability); format: physicochemical
Method: In each case, the following parameters were assessed: a) monomer content (size exclusion chromatography), b) activin A and GDF-8 neutralization (cell-based assays [CBAs]), c) activin A binding (ELISA), d) GLP-1 receptor binding (ELISA).
In each case, the following parameters were assessed: a) monomer content (size exclusion chromatography), b) activin A and GDF-8 neutralization (cell-based assays [CBAs]), and c) GLP-1 receptor activation (CBA).
Given that protein aggregation can be indicative of reduced conformational stability and decreased activity, Size-Exclusion Chromatography-High Performance Liquid Chromatography (SEC-HPLC) was used to determine the purity of each ActRIIB-ECD construct. This method measured the percentage of intact monomeric species as well as the presence of aggregates and/or degradation products.
In some instances, the method used to assess the purity of an agent was based on a reversed-phase high-performance liquid chromatography (RP-HPLC) setup with a C18 column. The mobile phases consisted of acetonitrile with 0.1% formic acid (organic phase) and water with 0.1% formic acid (aqueous phase). […] Formic acid anions form an ion pair with positively charged peptides, increasing their hydrophobicity and therefore their retention time. Detection was performed using a UV detector, at 280 nm.

activin A [5] = target: T1, activin A; assay: Potency testing by ELISA: activin A binding; conditions: for ELISA potency Activin A, potency fold-change: relative to reference (P1372 = 1)
Excerpt: Potency testing by ELISA. […] The next day, the plate was washed three times with buffer (Biolegend #421601).

activin A [6] = target: T1, activin A; assay: TGFβ-reporter HEK293 cell-based assay: activin A neutralization; conditions: for IC50: read-out: CBA Potency Activin A; for CBA potency Activin A, potency fold-change: relative to reference (P1372 = 1)
Method: Potency testing by neutralization on cell-based assays. Characterization of the activin A, activin B, GDF-8, and GDF-11 inhibition potency (IC50) of the fusion proteins was performed using a cell-based reporter assay. TGFβ-reporter HEK293 cells were obtained from InvivoGen (San Diego, CA, cat. no. hkb-tgfb) and were maintained following the manufacturer's instructions. Briefly, cells were grown in high-glucose DMEM, containing 10% heat-inactivated FBS, 30 μg/mL blasticidin, 250 μg/mL hygromycin B, and 100 μg/mL zeocin (hereafter, “growth medium”). Once the cells reached 70-80% confluence, they were detached in growth medium by gently tapping on the flask. For all assays, cells were seeded in 96-well plates at a density of 20,000 cells per well in growth medium. Cells were left to attach for 10 minutes at room temperature (RT) prior to being transferred to a 37° C. incubator (5% CO2) overnight. The next day, treatments were prepared by combining the appropriate concentration of agent with activin A, activin B, GDF-8, or GDF-11 for 30 min at RT (shaking at 150 rpm). Treatments were conducted in high-glucose DMEM (serum-free and with no selection agents), and the final concentration of cytokine (ligand) was 0.3 nM. Growth medium was removed from the culture plates, and cells were treated with the appropriate mixes of fusion protein and cytokine. Treatment duration was for 18-22 h at 37° C. (5% CO2). All treatments were performed in technical duplicates and at least one or two independent experiments were conducted for each cytokine. At the end of the treatment period, supernatants were transferred to a new plate, and centrifuged at 300 RPM for 3 min. Forty microlitres of supernatant from each condition was transferred to a new plate, into which 180 μL of Quanti-Blue reagent (InvivoGen, cat. no. rep-qbs) was added. Quanti-Blue reagent was prepared following the manufacturer's instructions. Samples were incubated for 45 min at 37° C. At the end of the incubation, absorbance was read at 650 nm. The data were plotted in GraphPad Prism, which was used to calculate IC50 values as a non-linear regression.

[7] = DIO mice, 21 days, P1229 10 mg/kg twice weekly
[8] = DIO mice, 21 days, P1229 40 mg/kg twice weekly + calorie restriction
[9] = D 7 after storage at room temperature
[10] = D 28, storage at room temperature

activin A binding, ELISA signal relative to P75 (activin A [3]): potent activin A binding
Molecule: P1229: hActRIIB L33W, 14 aa linker, IgG1-DL Fc; SEQ ID 211
body weight gain [1]: apparent body weight gain that did not reach statistical significance | body weight [2]: increased body weight | Body weight (% change from baseline) (DIO mice; DIO mice, 21 days s.c., P1307 20 mg/kg weekly, P1229 40 mg/kg twice weekly, semaglutide 40 μg/kg daily, tirzepatide 45 μg/kg daily, alone or combined): +11.1% | Body weight (% change from baseline) (DIO mice; [7]): +7.7% | Fat mass (% change from baseline) (DIO mice; [7]): −1.6% | Lean mass (% change from baseline) (DIO mice; [7]): +10.6% | Lean mass/fat mass ratio (DIO mice; [7]): 1.4 | Body weight (% change from baseline) (DIO mice; [8]): −12.8% | Fat mass (% change from baseline) (DIO mice; [8]): −33.7% | Lean mass (% change from baseline) (DIO mice; [8]): +3.5% | Lean mass/fat mass ratio (DIO mice; [8]): 1.9 | visceral, epididymal, pericardial, peri-renal, and retroperitoneal white adipose tissue weights (DIO mice; DIO mice, D21): not significantly affected | white adipose tissue weights (DIO mice; DIO mice, D21, P1229 with caloric restriction): significantly decreased visceral, pericardial, and peri-renal (but not epididymal and retroperitoneal) white adipose tissue weights | gastrocnemius and tibialis anterior weights (DIO mice; DIO mice, D21, P1229 with or without caloric restriction): significantly increased | Fat mass (% change from baseline) (DIO mice; as E44, NMR): +2.7% | Lean mass (% change from baseline) (DIO mice; as E44, NMR): +15.1% | Lean mass/fat mass ratio (DIO mice; as E44, NMR): 1.3

ELISA potency Activin A, fold-change vs reference (activin A [5]; D 0): 1 (ref) | ELISA potency Activin A, fold-change vs reference (activin A [5]; D 7 after storage at 2-8° C.): 1 (ref) | ELISA potency Activin A, fold-change vs reference (activin A [5]; [9]): 1 (ref) | ELISA potency Activin A, potency fold-change (activin A [5]; D 28, storage at 2-8° C.): 1 (ref) fold | ELISA potency Activin A, potency fold-change (activin A [5]; [10]): 1 (ref) fold | CBA potency Activin A, fold-change vs reference (activin A [6]; D 0): 1 (ref) | IC50 (activin A [6]; D 0): 0.59 nM | IC50 (activin A [6]; D 7, 2-8° C.): 0.81 nM | IC50 (activin A [6]; D 7, RT): 0.78 nM | CBA potency Activin A, fold-change vs reference (activin A [6]; D 7 after storage at 2-8° C.): 1 (ref) | CBA potency Activin A, fold-change vs reference (activin A [6]; [9]): 1 (ref) | IC50 (activin A [6]; D 14, 2-8° C.): 0.63 nM | IC50 (activin A [6]; D 14, RT): 0.74 nM | IC50 (activin A [6]; D 28, 2-8° C.): 0.99 nM | IC50 (activin A [6]; D 28, RT): 0.9 nM | CBA potency Activin A, potency fold-change (activin A [6]; D 28, storage at 2-8° C.): 1 (ref) fold | CBA potency Activin A, potency fold-change (activin A [6]; [10]): 1 (ref) fold | IC50 (activin A [6]; D 56, RT): 1.1 nM
B1: P1372: hActRIIB L33W, 14 aa linker, IgG1 YTE-DL Fc; SEQ ID 231 (protein)
chain: ETRECIYYNANWELERTNQSGLERCEGEQDKRWHCYASWRNSSGTIELVKKGCWLDDFNCYDRQECVATEENPQVYFCCCEGNFCNERFTHLPEAGGPEVTYEPPPTGGGGSGGGGSGGGGTHTCPPCPAPELLGGPSVFLFPPKPKDTLYITREPEVTCVVVDVSHEDPEVKFNWYVDGVEVHNAKTKPREEQYNSTYRVVSVLTVLHQDWLNGKEYKCKVSNKALPAPIEKTISKAKGQPREPQVYTLPPSRDELTKNQVSLTCLVKGFYPSDIAVEWESNGQPENNYKTTPPVLDSDGSFFLYSKLTVDKSRWQQGNVFSCSVMHEALHNHYTQKSLSLSPG
Monomer content P1372 ([4]; D 0, P1372 40 mg/mL, semaglutide […], pH 7.5): 99.3% | Monomer Content (%) P1372 ([4]; D 0, P1372 40 mg/mL, tirzepatide 10 mg/mL, 10 mM NaPO4, 100 mM Glycine, 75 mM sucrose (pH 7.5)): 98.9% | Monomer Content (%) P1372 ([4]; D 7, 2-8° C.): 98.9% | Monomer Content (%) P1372 ([4]; D 7, RT): 98.8% | Monomer content P1372 ([4]; D 7 after storage at 2-8° C.): 99.3% | Monomer content P1372 [4, 9]: 99.2% | Monomer Content (%) P1372 ([4]; D 14, 2-8° C.): 98.8% | Monomer Content (%) P1372 ([4]; D 14, RT): 97.9% | Monomer Content (%) P1372 ([4]; D 28, 2-8° C.): 98.9% | Monomer Content (%) P1372 ([4]; D 28, RT): 98.6% | Monomer content P1372 ([4]; D 28, storage at 2-8° C., 10 mM NaPO4, 100 mM glycine, 75 mM sucrose pH 7.5): 99.2% | Monomer content P1372 ([4]; D 28, storage at room temperature, 10 mM NaPO4, 100 mM glycine, 75 mM sucrose pH 7.5): 98.8% | Monomer Content (%) P1372 ([4]; D 56, 2-8° C.): 98.8% | Monomer Content (%) P1372 ([4]; D 56, RT): 98.4%
